Experimental data reported in US20250313612A1 (Adimab, published 2025).

Columns and labels:
[1] = molecular target: RSV F protein of recombinant mKate-RSV, subtype A (strain A2) (Respiratory syncytial virus subtype A …, UniProt P03420 26-574); test: cell-based or functional assay
[2] = molecular target: RSV F protein of recombinant mKate-RSV, subtype B (18537) (Respiratory syncytial virus subtype B …, UniProt P13843 26-574); test: cell-based or functional assay

Binder	Neut IC50 subtype A [1] [µg/mL]	Neut IC50 subtype B [2] [µg/mL]
ADI-14467 (antibody, V domains shown) VH: EVQLLESGSEVKKPGTSVKVSCETSGYIFTNYAISWVRQAPGQGLEWLGWISGYNGQTYYAQKVQGRLTLTTDTSTMTAYMDLTSLRSDDTAIYYCVRDVPVISGASTMDYWGQGTLVTVSS VL: DIVMTQSPLSLPVTHGQPASISCRSSQSLVYSDGNTYLSWFQLRPGQSPRRLIYKVSNRDSGVPDRFSGSGSGTDFTLKISRVEAEDVGVYYCMQATQWPRTFGQGTKVEIK	0.06	0.065
ADI-14456 (antibody, V domains shown) VH: QVQLVQSGAEVKKPGASVKVSCEASEYSFSGDYVHWVRQAPGQGLEWMGWIKAVNGGANYAQKFHGRVTMTTDSSKSTVYLEMSRLTPADTAIYFCAKDRAASVHVPAGAFDLWGQGTLVTVSS VL: DIQMTQSPSSLSAYVGDRVSITCRASQSIDNFLNWYRQRPGKAPELLIYAASTLQGGVPSRFSGSGSGTHFTLTISSLQPEDFATYYCQQSFTIPSITFGQGTRLEIK	> 10	0.372
ADI-14464 (antibody, V domains shown) VH: QVQLVQSGAEVKKPGASVKVSCEASAYSFSGDYVHWVRQAPGQGLEWMGWIKAVNGGANYAQRFHGRVTMTTDSSRSTVYLELTRLTPDDTAVYFCAKDRAASVHVPAGEFDLWGQGTLVTVSS VL: DIQVTQSPSSLSASVGDRVSITCRASQSISNFLNWYRQRPGKAPELLIYAASTLQGGVPSRFSGSGSGTHFTLTISSLQPEDFATYYCQQSYTIPSITFGQGTRLEIK	> 10	0.161
ADI-14462 (antibody, V domains shown) VH: QVQLVQSGGGVVQPGGSLRLSCAAYGLTFRAYGMHWVRQAPGKGLEWVAVSWYDGTNEVYADSVKGRFRISRDDSRSTLYLQMNSLRGEDTAVYYCATERMWEENSSSFGWWGRGTLVTVSS VL: QAVLTQPASVSGSPGQSITISCTGSSSDVGGSNFVSWYQQHPGKAPKLMVYDVNHRPSGISNRFSGSKSGNTASLTISGLQAEDEADYYCTSYTSRSSYVFGSGTKVTVL	2.71	2.63
ADI-14463 (antibody, V domains shown) VH: QVQLVQSGTEVKKPGASVKVSCKASGYIFDHFAITWVRQAPGQGPEWMGWISAYNGRTEDSGKFPGRLTLTTDPATRTAFLELRGLTPDDTAVYYCARDVPVMGAAFLDYWGQGTLVTVSS VL: EIVLTQSPLSLPVTVGQPASISCRSGQSLEFSDGNTYLTWFHQRPGQSPRRLIYRGSYRDSGVPDRFRGSGSGTTFTLTISRVEAEDVGIYFCMQGTHWPPTFGQGTKVDIK	0.009	0.036
ADI-14474 (antibody, V domains shown) VH: QVQLVQSGPEVKKPGASVTISCQASGYIFNHYSITWVRQAPGQGTEWMGWISAYHGKTEYSGKFHGRVTLTTDTGTRTAFLELRDLTSDDTAIYYCARDVPVMGAAFLDYWGQGTLVTVSS VL: EIVLTQSPLSLPVTLGQPASISCRSGQSLEFSDGNTYLTWFQQRPGQSPRRLIFRGSYRDSGVPERFSGSGSGTSFTLTISRVEAEDVGIYFCMQGTHWPPTFGQGTKLEIK	0.019	0.016
ADI-14441 (antibody, V domains shown) VH: QVQLVQSGAEVKKPGSSVKISCKASGGTFNSQAIHWVRQAPGQDLEWMGNIIPGFGSPNSAQNFQGRVTFIADDSTGAAYMDLSSLKSEDTAVYYCATAGWFGESVHLDSWGQGTLVTVSS VL: not shown	> 10	3.92
ADI-14465 (antibody, V domains shown) VH: QVQLLESGAGLLKPSETLSLTCSLSGGSFRDFYWAWIRQAPGRGLEWIGDINDGGNTNHSPSLKSRAILSIDASKRQFSLRLTSVTAADTAVYYCARQRLEHTASGYYMDVWGNGTTVTVSS VL: QSVLTQPPSVSVDPGETATITCGGANIGSKNVYWYQQRPGQAPVLVVYDDIDRPAGIPDRFTDSSSGNTVTLTIYSVEAVDEADYFCQVWDNSSDQPVFGGGTKLTVL	0.431	0.124
